Data on 3 molecules can be found in publication PMC6312279, “Characterization of a protozoan Phosducin-like protein-3 (PhLP-3) reveals conserved redox activity” (PLoS ONE, 2018).

One experiment deals with T1, HsPhLP-3 (Homo sapiens, UniProt O14530).
T1 construct: gene TXNDC9
T1 sequence (O14530 1-226): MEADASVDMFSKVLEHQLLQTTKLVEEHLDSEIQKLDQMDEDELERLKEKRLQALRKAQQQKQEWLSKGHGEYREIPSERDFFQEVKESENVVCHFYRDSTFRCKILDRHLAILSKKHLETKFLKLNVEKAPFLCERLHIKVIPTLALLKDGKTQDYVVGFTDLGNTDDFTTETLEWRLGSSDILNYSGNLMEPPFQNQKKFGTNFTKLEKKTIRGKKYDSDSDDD
Briefly: thioredoxin-coupled NADPH oxidation assay, […] nm. The class given is biochemical. The conditions noted are these: thioredoxin system/NADPH as reductant, millimolar TBHP needed; data not shown separately.

A further experiment has as its target T2, PbPhLP-3 (Plasmodium berghei, UniProt A0A509AN16).
T2 construct: gene PBANKA_1204800
T2 sequence (A0A509AN16 1-193): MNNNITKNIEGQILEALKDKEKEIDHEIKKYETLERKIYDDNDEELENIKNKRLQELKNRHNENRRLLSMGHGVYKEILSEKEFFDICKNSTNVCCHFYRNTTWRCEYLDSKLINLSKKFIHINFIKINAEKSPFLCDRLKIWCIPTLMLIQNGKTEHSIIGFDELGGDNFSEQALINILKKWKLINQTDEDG
In words: thioredoxin-coupled NADPH oxidation assay, […] nm. The class given is biochemical. The conditions noted are these: PbTrxR/PbTrx-1/NADPH as reductant, pH 7.4, 25 °C; linear, non-saturating up to millimolar TBHP, authors suggest non-enzymatic mechanism.

Experiment [1] concerns the target Plasmodium berghei Phosducin-like protein-3 (PbPhLP-3) (Plasmodium berghei).
The target in experiment [2] is T3, human PhLP-3 (HsPhLP-3; thioredoxin-domain containing protein 9, TXNDC9) (human) (UniProt O14530).
T3 sequence: T1 sequence (O14530 1-226)

Turning to `CC(C)(C)OO` [TBHP], the results for the “thioredoxin-coupled NADPH oxidation assay, 340 nm” value at HsPhLP-3 and at PbPhLP-3 were “both PhLP-3 proteins investigated here reduce the oxidative compound TBHP” and “reduction of the compound was observed in the presence of PbPhLP-3”, respectively.

As for “Plasmodium berghei thioredoxin-1 (PbTrx-1) (natural protein)”, in experiment [1], the KM for PbTrx-1 in the Trx-reduction assay (initial velocities of NADPH oxidation at PbTrx-1 0.5–50 μM) came out at 5.82 µM, the Vmax in the Trx-reduction assay (initial velocities of NADPH oxidation at PbTrx-1 0.5–50 μM) was 10.1 µM/min, the kcat in the Trx-reduction assay (initial velocities of NADPH oxidation at PbTrx-1 0.5–50 μM) stood at 0.0167 s⁻¹ and the kcat/KM (rate constant) in the Trx-reduction assay is 2830 M⁻¹ s⁻¹.

B1: human Trx-1 (HsTrx-1) (natural protein)
chain: MVKQIESKTAFQEALDAAGDKLVVVDFSATWCGPCKMIKPFFHSLSEKYSNVIFLEVDVDDCQDVASECEVKCMPTFQFFKKGQKVGEFSGANKEKLEATINELV
In the case of B1, in experiment [2], the KM in the Trx-reduction assay with PbTrxR, HsTrx-1 and HsPhLP-3 was 6.53 µM; the Vmax in the Trx-reduction assay with PbTrxR, HsTrx-1 and HsPhLP-3 was 12.6 µM/min; the kcat in the Trx-reduction assay with PbTrxR, HsTrx-1 and HsPhLP-3 stood at 0.021 s⁻¹; the kcat/KM (rate constant) in the Trx-reduction assay with PbTrxR, HsTrx-1 and HsPhLP-3 amounted to 3170 M⁻¹ s⁻¹.
